# Test results: US20200069794A1
# Experiments:
# [1] = target: human metapneumovirus (hMPV) fusion (F) protein (Strain: A/TN92-4) (human metapneumovirus) (UniProt Q6WB98); test: flow cytometry, fluorescent staining of Hela cells transfected with hMPV/hPIV3 mRNA constructs; secondary antibody only (control)
# [2] = target: human metapneumovirus (hMPV) fusion (F) protein (Strain: A/TN92-4) (human metapneumovirus) (UniProt Q6WB98); test: flow cytometry, fluorescent staining of Hela cells transfected with hMPV/hPIV3 mRNA constructs; MPE8 at 500 nM plus secondary antibody
Substance,Mean FL4-H [1],Mean FL4-H [2]
"secondary antibody (staining control, 'Secondary only')",2160,
hMPV-F-specific antibodies MPE-8 (antibody),,617000
